From the nanobody polyreactivity screen of Harvey et al. (2022)

Experiment: yeast display, Sf9 membrane polyspecificity reagent, FACS + sequencing; frameworks hold sequencing errors
Outline: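 Nanobodies from a synthetic yeast display library (Saccharomyces cerevisiae BJ5465), induced 36–48 hours with galactose, were stained 1 hour at 4 °C with 10% biotinylated, detergent-solubilized Sf9 membrane reagent, enriched on streptavidin microbeads, then FACS-sorted. Anti-HA (expression) and streptavidin (reagent binding) fluorescence set low and high (top ~1%) gates. Polyreactivity labels come from the gate of origin. Genes were colony-PCR amplified, MiSeq 2 × 250 sequenced and filtered by CDR length.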

Row | Sequence | polyreactivity (PSR sort gate)
1 | QVQLVESGGGLVQAGGSLRLSCAASGRIFYPYSMGWYRQAPGKERELVASINYRGGSTYYADSVNGRFTISRDNAKNTVYLQMNSLKPEDTAVYYCNAVRGFYRYSSSMGYWGQGTQVTVSS | high polyreactivity
2 | QVQLVESGGGLVQAGGSLRLSCAASGRIFSNYAMGWYRPAPGKESELVAAISRGGGRTFYADSVTGRFTISRDNAKNTVYLQKNSLKPEDTAVYYCATRSYYVKGDYWGQATQVTVSS | high polyreactivity
3 | QVQLVESGGGLVQAGGSLRLSCAASGRTFVVYAMGWYRQAPGKERELVASISSIGDITNYADSVKGRFTISRDNAKNTVYLQMNSLKPEYTAVYYCTAPIGGSYNTRRAAEYDYWGQGTQVTVSS | low polyreactivity
4 | QVQLVESGGGLVQAGGSLRLSSPASGSIYRKYGMGSYRQAPGKERELVATITSSGGSTYYADSVKGRFSISRDNAKKTVYLQMNSLKPEDTAVYYCAADYYYLPGSYQVRAMYYWGQGTQVTVSS | high polyreactivity
5 | QVQLVESGGGLDQAGGSLRLSCAASGYIFYRNAMGCYRQAPGKERELVAAITYTGGRTYYADSVKGRFTISRDNAKNTVYLQMNSLKPEDTAVYYCNADGRVFVVRPYYDYEYWGQGTQVTVSS | low polyreactivity
6 | QVQLVESGGGLVQAGGSLRLSCAPSAFTFKYYSMGWYRHTPGKESELVAVISWSGGSTYYADSVKGRFTISRDYAKNTVYLHMNSQKPEDTAVYYCAAYERKFYTVSRWYKLDYWGQGTQVTVSS | high polyreactivity
7 | QVQLVESGGGLVQAGGSLRLSCAASGFIFYSNAMGSYRQAPGKERELVASITGDGGTTYYADSVKGRFTISRDNAKTTGYLEMNSLKPEDTAVYYCAKDYIYRGYYTDFRYEDYDYWGQGTQVTVSS | low polyreactivity
8 | QVQLVESGGGLVQAGGSLRLSCAASGRIFPGYAMGWYRQAPGKERELVAAISTNGGRTYYADSVKGRFTISRDNAKNTVYLQMNSLKPEDTADYYCAAESAYDAYDYWGQGTQVTVSS | high polyreactivity
9 | QVQLVESGGGLVQAGGSLRLSCAASGFTIRYYTMGWYRQAPGKERELVAAITWSGGRTYYADSVKGRFTISRDNAKNTVYLQMNSLKPDETAVYYCAADVTKRASRDYYWGQGTQVTVSS | high polyreactivity
10 | QVQLVESGGGIVQAGGSLRLSCAASGFIFPDYGMGWYRQAPGKERELVAAISRNGVSTYYADSVKGRFTISRDNAKNTVYLQMNSLKPEDTAVYYCAARYYRIRRVSKSGYYWGQGTQVTVSS | low polyreactivity
11 | QVLLVESGGCLVQEGGSLRFSCAASGFIFAYYAMGWYRPAPGKERELVAAITSDGATYYADSVKGRFTISRDNAKNTVYLQMNSLKPEATAVYYCNTYWLLRPGYIYWGQGTQVTVSS | high polyreactivity
12 | QVQLVESGGGLVQAGGSLRLSCAASGSTFAPYAMGWYRQAPGKERELVAAITWRGGSTYYADSVKGRFTISRDNAKYTVYLQMNSLKPEDTAVYYCNADGYVPDYEYWGQGTQVTVSS | high polyreactivity
13 | QVQLVESGGVLVQAGGSLRLICAASVRNFSTNSMGWYRQAPGKERELVASISFRGGRTYYADSVKGRFTISRDNAKNTVYLQMNSRKPEDNAVYYCVSGTKRTGYGYWGQGTQVTVSS | high polyreactivity
14 | QVQLVESGGGLVQAGGSLRLSCAASGRTSRRNAMGWYRQAPGKERELVAATSGSGTSTYYADSVKGRFTISRDNAKNTVYLQMNSLKPEDTAVYYCNTDTSRRAVQYDYWGQGTQVTVSS | high polyreactivity
15 | QVQLVESGGGLVQGGGSLRLSFAGSGFTFGRYLMGWYSQAPGKERELVAAISRSGGSTHYADSVKGRFTISRDYAMNHFYLQMNSLKPEDTAVYYCAAASPRWPGQGDYWGQGTQVTVSS | high polyreactivity
16 | QVQLVESGGGLVQAGGSLRLSCAASGLTIWYYSMGLYRQAPGKEREFVAAITSRGGDTNYADSVKGRFTISRDNAKNTVYLQMNSLKPEDTAVYYCAVRPRYYGTYRYYYWGQGTQVTVSS | high polyreactivity

Row | Sequence | polyreactivity (PSR sort gate)
17 | QVQLVDSGGGLVQAGGSLRLSCAASGFIFLNNAMGWYRQAPGKERELVAAITWSGGSTYYADSVKGRFTISRDNAKNTVYLQMNSLKPEDTAVYYCAADGWLYYGVGYWGQGTQVTVSS | low polyreactivity
18 | QVHLVESGGGLVQAGGSLRLSCAASGRNFGYYARGWYRQAPVKERELVAAIDSSGGDTYYADSVKGRFTISRDNAKNSVYVQMNSLKPEDTAVFYCAAEYVAQAGYGVDYWGQGTEVTVSS | low polyreactivity
19 | QVQLVESGGGLVQAGGSLRLSCAASGSTFGYNDMGWYRQAPGKERELVAAISVSDSSTYYADSVKGRFTISRDNAKNTVYLQMNSLKPEDTAVYYCAAYIYYNYSRQYWYDYWGQGTQVTVSS | low polyreactivity
20 | QVQLVESGGGLVQAGGSLRLSCAASGRIFPTYAMGWYRQAPGKERELVAGITSGGRTNYADSVKGRFTISRDNAKNTVYLQMNSLKPEDTAVYYCAKRVWPRDQYGKRNPRMDYWGQGTQVTVSS | high polyreactivity
21 | QVQLVESGGGLVQAAGSLRLSCAASGSIFGAYAMGWYRQAPGKERELVAAINYGGATTYYADSVKGRFTISRDNAKNTVYLQMNSLKPEDTAVYYCAADYLYAYGDVAVVYGWYAYYYWGQGTQVTVSS | low polyreactivity
22 | QVQLVESGGGLVQAGGSLRLSCAASGFILGTNAMGWYRQAPGKERELVAAISYSGGSTNYADSVKGRFTISRDNAKNTVYLQMYSLKPEDTPVYYCNRDPRKYGKLDYWGQGTQVTVSS | low polyreactivity
23 | QVQLVESGGGLVQAGGSLRLSCAASGFIFYLYARGWYRQAPGKERELVAAITRRGGSTYYADSVKGRFTISRDIAKNTFYLQMNSLKPEDTAVYYCAADHYGFFSAGDFDYWGQGTQVTVSS | high polyreactivity
24 | QVQLVESGGGLVQAGGSLRLSCAASGSIFVGYAMGWYRQAPGKERELVAAISKRGGGTYYADSVKGRFTISRDNAKNTVYLQMNSLKPEDTAVYYCNAVTVHLDVASGYYYWGQGTQVTVSS | high polyreactivity
25 | QVQLVESGGGLVQAGGSLRLSCADSGRIFVRKAMGWYRQAPGKERELVAAISARGGRTNYADSVKGRFTISRDNAKNTVYLQMNSLKPEDTAVYYCAADGLRAAYLYDYWGQGTQVTVSS | high polyreactivity
26 | QVQLVESGGGLVQAGGSLRLSCAASGRTFGYYTMGWYRQAPGKERELVATITSSGGSTYYADSVKGRFTISRDNAKNTVYLQMNSLKPEDTAVYYCAARRKQGAYDYWGQGTQVTVSS | high polyreactivity
27 | QVQLVESGGGLVQAGGSLRLSCAASGITFSRNAMGWYRQAPGKERELVAVISTRGGRTYYADSVKGRFTISRDNAKNTVYLQMNSLKPEDTAVYYCAARSTYYRQQRGYDYWGQGTQVTVSS | high polyreactivity
28 | QVQLVESGGGLVQAGGSLRLSCAASGSTFVKNAMGWYRQAPGKERELVAAISYRGGRTYYADSVKGRFTISRDNAKNTVYLQMNSLKPEDTAVYYCAADYISVYGYEYYYWGQGTQVTVSS | high polyreactivity
29 | QVHLVESGGGLVQAGGSLRLSSAASGRIFYNYTMRWYRQAPGKERELVAAITRSGSSTYADSVKGRFTISRDNGKNTVYLQMNSLKQEDTAVYYCAGEYIRRYDYWGQGTQETVSS | low polyreactivity
30 | QVQLVESGGGLVQAGGSIRLSCAASGRIFHLYAMGWYRQAPGKERELVAAISRGGDTYYADSVKGRFTISRDNAKNTVYLQMYSLKPEDTAVYYCAAGRWVYTVGYYPVGYYYWGQGTQVTVSS | high polyreactivity
31 | QVQLVESGGGLVQGGGSLRLSCAASGSTFSRYAMGWYRPAPGKERELVAAITGTGGRTYYADSVKGRFTISRANAKNTVYLQRNSLKPEDTAVYYCAAQRWTVKYNYWGQGTQVTVSS | high polyreactivity
